In paper PMC5595328 one finds binding signal and stoichiometry N data, which are given here for three substances.

The stoichiometry N is the number of molecules, sites or subunits per partner or assembly.

In series [1] the test system is VarR (Vibrio cholerae O1 biovar El Tor N16961). As to the kind of experiment: competition. The settings on record: 50 mM Tris-HCl pH 7.5, 5 mM EDTA, 1 mM DTT, 100 ug/ml BSA, 5% glycerol, on ice 10 min; 4% polyacrylamide gel.
Series [2] deals with VarF ATPase subunit of the VarDEF ABC transporter (Vibrio cholerae (strain CVD101 chromosomal DNA)). As to the kind of experiment: SEC; Superdex200 PrepGrade HiLoad 16/60, 20 mM Tris-HCl pH 8.25, 50 mM NaCl, 10% glycerol, 1 ml/minute; Mr from a calibration curve of standards. On the technique in general: In gel filtration, larger molecules generally elute earlier.
Series [3] has as its target VarG metallo-β-lactamase (Vibrio cholerae (strain CVD101 chromosomal DNA)). As to the kind of experiment: AUC.
Series [4] shares this target. As to the kind of experiment: AUC; sedimentation velocity, 42,000 rpm, 20°C, 280 nm, SEDFIT c(s, fr) and c(s, M).
Series [5] has the same target. As to the kind of experiment: SEC; Superdex200 PrepGrade HiLoad 16/60, 20 mM Tris-HCl pH 8.25, 50 mM NaCl, 10% glycerol, 1 ml/minute; Mr from a calibration curve of standards.
For series [6] the target is unchanged. As to the kind of experiment: intact protein ESI Q-TOF mass spectrometry; putative dimer peak from SEC infused directly, positive ion mode, MaxEnt1 deconvolution; 10 μg/mL in the methods, 50 μg/mL in the legend.

Take 30 bp varR-varG IR: the binding signal in series [1] came out at 1 ng.

As for “VarF ATPase subunit of the VarDEF ABC transporter (enzyme)”, the stoichiometry N in series [2] stood at 2.

VarG metallo-β-lactamase (enzyme): the stoichiometry N in series [3], in series [4], in series [5] and in series [6] was 2 throughout.
